We go through one protein from publication PMC2742894, “Crystal Structure of the N-Acetylmannosamine Kinase Domain of GNE” (PLoS ONE, 2009).

The data set concerns the molecule itself. Kind of data set: SEC; Superdex-200 10/300; GNE kinase domain at 6 mg per mL in 20 mM HEPES pH 7.5, 500 mM NaCl, 5 mM MgCl2, 1 mM TCEP; apparent molecular weight from a calibration curve.

B1: N-acetylmannosamine kinase domain of UDP-GlcNAc 2-epimerase/N-acetylmannosamine kinase (GNE), residues 406-720 (domain or fragment, human, UniProt Q9Y223 406-720, looked up)
chain: TLSALAVDLGGTNLRVAIVSMKGEIVKKYTQFNPKTYEERINLILQMCVEAAAEAVKLNCRILGVGISTGGRVNPREGIVLHSTKLIQEWNSVDLRTPLSDTLHLPVWVDNDGNCAALAERKFGQGKGLENFVTLITGTGIGGGIIHQHELIHGSSFCAAELGHLVVSLDGPDCSCGSHGCIEAYASGMALQREAKKLHDEDLLLVEGMSVPKDEAVGALHLIQAAKLGNAKAQSILRTAGTALGLGVVNILHTMNPSLVILSGVLASHYIHIVKDVIRQQALSSVQDVDVVVSDLVDPALLGAASMVLDYTTRR
notes: UDP-GlcNAc 2-epimerase/N-acetylmannosamine kinase (GNE), human, kinase domain, residues 406-720; cDNA codon optimized for E. coli and synthesized; Cloned into pET28-MHL (gi:134105571); For crystallization 1:100 chymotrypsin (w/w) and 5 mM ADP were added to the protein stock, so the crystallized chain may be trimmed; residues 475-498 are not seen in the electron density; A …
Turning to B1, the “stoichiometry N” value is 2.

By stoichiometry N is commonly meant a count of units in the complex or per binding partner.
